Source: US5635216A, “Microparticle compositions containing peptides, and methods for the preparation thereof” (Eli Lilly and Company, priority 1993, dated 1997)

Legend:
[1] = system: finishing swine; assay: Serum growth hormone levels in finishing swine after subcutaneous injection; assay type: in vivo; details: b137 study, FIGS. 3 and 4; barrows, 3 micrograms/kg/day injected twice per day; all time periods for 15 days
Procedure: (§1) The microparticles prepared in accordance with the previous examples were used to determine the effect of somatogenin (LY293404) concentration in different PLA/PGA microparticle concentrations. Payout characteristics were measured by urinary urea nitrogen excretion and serum growth hormone levels in finishing swine. The microparticle formulations were placed in suspension, using 2% W/V sodium carboxyl-methyl-cellulose 330 (NaCMC) in Nano-pure II purified water. The suspension was injected subcutaneously in the flank. […] Urinary nitrogen reduction is a measurement of growth hormone which is stimulated by somatogenin release from microparticles. […] The reduction was the greatest for the highest loaded (25%) microparticles, and lowest for the lowest (5%) loaded microparticles. […] The vertical bars in the figures represent the relative standard deviations. The microparticles prepared in accordance with the previous examples were used to determine the payout characteristics of somatogenin (LY293404) when administered in different PLA/PLG microparticle formulations as measured by urinary urea nitrogen excretion and serum growth hormone levels in finishing swine. The microparticle formulations were placed in suspension, using 2% W/V sodium carboxyl-methyl-cellulose 330 (NaCMC) in Nano-pure II purified water. The suspension was injected subcutaneously in the flank. […]

[2] = system: finishing swine; assay: Urinary urea nitrogen excretion in finishing swine after subcutaneous injection; assay type: in vivo; details: b137 study, FIGS. 3 and 4; barrows, 3 micrograms/kg/day injected twice per day; all time periods for 15 days
Procedure: as §1

B1: 4-methylhippuroyl (1) porcine GHRH (2-76)--OH (peptide)
chain: GADAIFTNNYRRVLTQLSARRLLQDILSRQQGERNQEQGARVRLGRQVDSLWADQRQLALESILATLLQEHRNSQG
modifications: 4-methylhippuroyl N-terminus
notes: analog of a natural porcine GHRH prohormone
In the case of B1, the “serum GH levels” value [1] is reported as “elevation” and the urinary urea excretion [2] is reported as “reduction”.
